According to article PMC9482650, “Quantitative fragmentomics allow affinity mapping of interactomes” (Nature Communications, 2022):

T1: SNTB1, Q13884
T1 sequence (Q13884 107-205, limits assumed, looked up): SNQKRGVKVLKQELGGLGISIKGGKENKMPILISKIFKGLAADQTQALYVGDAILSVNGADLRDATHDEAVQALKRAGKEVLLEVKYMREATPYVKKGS

T2: HTRA3, P83110
T2 sequence (P83110 354-453, limits assumed, looked up): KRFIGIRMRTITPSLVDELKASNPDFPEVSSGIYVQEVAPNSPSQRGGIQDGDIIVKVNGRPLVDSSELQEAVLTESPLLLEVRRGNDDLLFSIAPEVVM

T3: LRRC7, Q96NW7
T3 sequence (Q96NW7 1440-1537, limits assumed, looked up): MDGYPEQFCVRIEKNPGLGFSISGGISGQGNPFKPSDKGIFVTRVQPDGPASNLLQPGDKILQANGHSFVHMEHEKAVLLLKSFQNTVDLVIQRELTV

T4: DFNB31_2, Q9P202
T4 sequence (Q9P202 274-371, limits assumed, looked up): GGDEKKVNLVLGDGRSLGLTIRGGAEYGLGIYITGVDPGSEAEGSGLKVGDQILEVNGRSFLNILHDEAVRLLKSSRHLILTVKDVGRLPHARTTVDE

T5: ARHGAP21, Q5T5U3
T5 sequence (Q5T5U3 45-169, limits assumed, looked up): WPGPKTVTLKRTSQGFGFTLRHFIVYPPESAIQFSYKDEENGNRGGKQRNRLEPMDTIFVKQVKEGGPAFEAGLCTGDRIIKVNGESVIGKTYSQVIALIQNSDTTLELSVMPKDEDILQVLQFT

T6: MPDZ_5, O75970
T6 sequence (O75970 695-796, limits assumed, looked up): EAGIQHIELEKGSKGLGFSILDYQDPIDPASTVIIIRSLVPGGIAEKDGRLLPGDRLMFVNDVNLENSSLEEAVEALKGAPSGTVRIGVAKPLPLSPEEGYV

T7: PDZRN3_1, Q9UPQ7
T7 sequence (Q9UPQ7 244-349, limits assumed, looked up): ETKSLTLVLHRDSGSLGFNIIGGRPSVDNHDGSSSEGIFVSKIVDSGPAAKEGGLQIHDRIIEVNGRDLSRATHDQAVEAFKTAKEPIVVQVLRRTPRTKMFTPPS

T8: MPDZ_10, O75970
T8 sequence (O75970 1624-1722, limits assumed, looked up): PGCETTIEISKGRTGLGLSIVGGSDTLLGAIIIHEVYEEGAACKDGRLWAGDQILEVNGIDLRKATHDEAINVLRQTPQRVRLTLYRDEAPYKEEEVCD

T9: RHPN1, Q8TCX5
T9 sequence (Q8TCX5 508-602, limits assumed, looked up): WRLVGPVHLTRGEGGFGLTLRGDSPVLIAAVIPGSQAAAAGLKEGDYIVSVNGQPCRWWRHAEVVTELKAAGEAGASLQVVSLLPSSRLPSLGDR

T10: MPP7, Q5T2T1
T10 sequence (Q5T2T1 134-230, limits assumed, looked up): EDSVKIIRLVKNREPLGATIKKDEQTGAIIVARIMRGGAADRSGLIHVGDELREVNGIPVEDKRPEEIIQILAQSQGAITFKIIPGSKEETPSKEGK

T11: FRMPD1, Q5SYB0
T11 sequence (Q5SYB0 52-145, limits assumed, looked up): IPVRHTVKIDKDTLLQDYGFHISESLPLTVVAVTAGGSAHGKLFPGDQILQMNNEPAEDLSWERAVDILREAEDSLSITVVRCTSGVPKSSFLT


What follows are binders tested against FRMPD2_2, Q68DX3 (assay: holdup assay). Settings: plain residues with an end cap or a label only (N-terminal biotin on a linker: ado-ado).
Sequence of FRMPD2_2, Q68DX3 (Q68DX3 944-1038): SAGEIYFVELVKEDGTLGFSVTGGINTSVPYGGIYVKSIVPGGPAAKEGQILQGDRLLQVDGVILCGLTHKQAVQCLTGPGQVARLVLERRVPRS
Set-up: key: below the threshold = too weak to quantify, mostly under pKd 3.1 to 4
In the case of KSRPENGTVC [TMEM178B, H3BS89], the pKd is reported as “below the threshold”.

These binders were tested against T1, SNTB1, Q13884 (assay: holdup assay). Settings: plain residues with an end cap or a label only (N-terminal biotin on a linker: ado-ado).
Set-up: key: below the threshold = too weak to quantify, mostly under pKd 3.1 to 4
In the case of KSRPENGTVC [TMEM178B, H3BS89], the pKd is reported as 3.56.

What follows are binders tested against DLG2_3, Q15700 (assay: holdup assay). Settings: plain residues with an end cap or a label only (N-terminal biotin on a linker: ado-ado).
Set-up: key: below the threshold = too weak to quantify, mostly under pKd 3.1 to 4
With KSRPENGTVC [TMEM178B, H3BS89] the pKd was “below the threshold”.

These binders were tested against T2, HTRA3, P83110 (assay: holdup assay). Settings: plain residues with an end cap or a label only (N-terminal biotin on a linker: ado-ado).
Set-up: key: below the threshold = too weak to quantify, mostly under pKd 3.1 to 4
With KSRPENGTVC [TMEM178B, H3BS89] the pKd was 4.44.

What follows are binders tested against T3, LRRC7, Q96NW7 (assay: holdup assay). Settings: plain residues with an end cap or a label only (N-terminal biotin on a linker: ado-ado).
Set-up: key: below the threshold = too weak to quantify, mostly under pKd 3.1 to 4
With KSRPENGTVC [TMEM178B, H3BS89] the pKd was “below the threshold”.

Each binder was assayed against Inadl_3, Q8NI35 (assay: holdup assay). Settings: plain residues with an end cap or a label only (N-terminal biotin on a linker: ado-ado).
Sequence of Inadl_3, Q8NI35 (Q8NI35 359-469): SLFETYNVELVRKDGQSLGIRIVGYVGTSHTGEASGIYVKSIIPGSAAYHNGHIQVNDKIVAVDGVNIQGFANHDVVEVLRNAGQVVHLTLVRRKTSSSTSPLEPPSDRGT
Set-up: key: below the threshold = too weak to quantify, mostly under pKd 3.1 to 4
KSRPENGTVC [TMEM178B, H3BS89] was tested, and the pKd was “below the threshold”.

These binders were tested against SCRIB_3, Q14160 (assay: holdup assay). Settings: plain residues with an end cap or a label only (N-terminal biotin on a linker: ado-ado).
Sequence of SCRIB_3, Q14160 (Q14160 999-1103): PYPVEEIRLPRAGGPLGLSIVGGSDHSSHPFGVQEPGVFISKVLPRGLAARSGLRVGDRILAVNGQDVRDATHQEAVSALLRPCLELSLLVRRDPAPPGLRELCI
Set-up: key: below the threshold = too weak to quantify, mostly under pKd 3.1 to 4
Binder KSRPENGTVC [TMEM178B, H3BS89] has a pKd of 3.66.

These binders were tested against T4, DFNB31_2, Q9P202 (assay: holdup assay). Settings: plain residues with an end cap or a label only (N-terminal biotin on a linker: ado-ado).
Set-up: key: below the threshold = too weak to quantify, mostly under pKd 3.1 to 4
For KSRPENGTVC [TMEM178B, H3BS89], the pKd was “below the threshold”.

These binders were tested against T5, ARHGAP21, Q5T5U3 (assay: holdup assay). Settings: plain residues with an end cap or a label only (N-terminal biotin on a linker: ado-ado).
Set-up: key: below the threshold = too weak to quantify, mostly under pKd 3.1 to 4
With KSRPENGTVC [TMEM178B, H3BS89] the pKd was 4.14.

These binders were tested against DLG4_1, P78352 (assay: holdup assay). Settings: plain residues with an end cap or a label only (N-terminal biotin on a linker: ado-ado).
Sequence of DLG4_1, P78352 (P78352 62-152): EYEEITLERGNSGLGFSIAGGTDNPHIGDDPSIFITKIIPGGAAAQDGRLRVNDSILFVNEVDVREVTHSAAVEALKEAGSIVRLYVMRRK
Set-up: key: below the threshold = too weak to quantify, mostly under pKd 3.1 to 4
In the case of KSRPENGTVC [TMEM178B, H3BS89], the pKd is reported as “below the threshold”.

These binders were tested against SCRIB_1, Q14160 (assay: holdup assay). Settings: plain residues with an end cap or a label only (N-terminal biotin on a linker: ado-ado).
Sequence of SCRIB_1, Q14160 (Q14160 718-814): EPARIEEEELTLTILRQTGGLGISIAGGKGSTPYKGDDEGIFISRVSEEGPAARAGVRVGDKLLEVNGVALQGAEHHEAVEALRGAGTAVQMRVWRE
Set-up: key: below the threshold = too weak to quantify, mostly under pKd 3.1 to 4
KSRPENGTVC [TMEM178B, H3BS89] gave a pKd of 3.78.

What follows are binders tested against T6, MPDZ_5, O75970 (assay: holdup assay). Settings: plain residues with an end cap or a label only (N-terminal biotin on a linker: ado-ado).
Set-up: key: below the threshold = too weak to quantify, mostly under pKd 3.1 to 4
With KSRPENGTVC [TMEM178B, H3BS89] the pKd was “below the threshold”.

The binders below were run against T7, PDZRN3_1, Q9UPQ7 (assay: holdup assay). Settings: plain residues with an end cap or a label only (N-terminal biotin on a linker: ado-ado).
Set-up: key: below the threshold = too weak to quantify, mostly under pKd 3.1 to 4
In the case of KSRPENGTVC [TMEM178B, H3BS89], the pKd is reported as “below the threshold”.

What follows are binders tested against TJP1_2, Q07157 (assay: holdup assay). Settings: plain residues with an end cap or a label only (N-terminal biotin on a linker: ado-ado).
Sequence of TJP1_2, Q07157 (Q07157 181-274): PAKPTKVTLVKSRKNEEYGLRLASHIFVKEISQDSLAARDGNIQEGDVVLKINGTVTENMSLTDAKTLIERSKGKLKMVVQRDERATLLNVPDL
Set-up: key: below the threshold = too weak to quantify, mostly under pKd 3.1 to 4
With KSRPENGTVC [TMEM178B, H3BS89] the pKd was “below the threshold”.

Each binder was assayed against Inadl_4, Q8NI35 (assay: holdup assay). Settings: plain residues with an end cap or a label only (N-terminal biotin on a linker: ado-ado).
Sequence of Inadl_4, Q8NI35 (Q8NI35 547-651): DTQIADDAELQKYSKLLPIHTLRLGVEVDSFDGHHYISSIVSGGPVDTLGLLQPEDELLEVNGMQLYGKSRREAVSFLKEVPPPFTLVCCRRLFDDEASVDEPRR
Set-up: key: below the threshold = too weak to quantify, mostly under pKd 3.1 to 4
With KSRPENGTVC [TMEM178B, H3BS89] the pKd was “below the threshold”.

Each binder was assayed against T8, MPDZ_10, O75970 (assay: holdup assay). Settings: plain residues with an end cap or a label only (N-terminal biotin on a linker: ado-ado).
Set-up: key: below the threshold = too weak to quantify, mostly under pKd 3.1 to 4
KSRPENGTVC [TMEM178B, H3BS89] was tested, and the pKd was “below the threshold”.

The binders below were run against PDLIM1, O00151 (assay: holdup assay). Settings: plain residues with an end cap or a label only (N-terminal biotin on a linker: ado-ado).
Sequence of PDLIM1, O00151 (O00151 1-87): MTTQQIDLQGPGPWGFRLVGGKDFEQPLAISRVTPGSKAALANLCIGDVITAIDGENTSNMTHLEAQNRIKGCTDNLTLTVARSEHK
Set-up: key: below the threshold = too weak to quantify, mostly under pKd 3.1 to 4
For KSRPENGTVC [TMEM178B, H3BS89], the pKd was “below the threshold”.

Each binder was assayed against NHERF4_1, Q86UT5-2 (assay: holdup assay). Settings: plain residues with an end cap or a label only (N-terminal biotin on a linker: ado-ado).
Sequence of NHERF4_1, Q86UT5-2 (Q86UT5 other isoform, or with tags, fused parts or gaps): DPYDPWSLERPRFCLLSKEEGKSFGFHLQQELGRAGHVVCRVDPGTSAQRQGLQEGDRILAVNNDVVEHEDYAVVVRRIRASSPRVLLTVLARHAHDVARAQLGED
Set-up: key: below the threshold = too weak to quantify, mostly under pKd 3.1 to 4
In the case of KSRPENGTVC [TMEM178B, H3BS89], the pKd is reported as “below the threshold”.

These binders were tested against GORASP1, Q9BQQ3 (assay: holdup assay). Settings: plain residues with an end cap or a label only (N-terminal biotin on a linker: ado-ado).
Sequence of GORASP1, Q9BQQ3 (Q9BQQ3 1-208): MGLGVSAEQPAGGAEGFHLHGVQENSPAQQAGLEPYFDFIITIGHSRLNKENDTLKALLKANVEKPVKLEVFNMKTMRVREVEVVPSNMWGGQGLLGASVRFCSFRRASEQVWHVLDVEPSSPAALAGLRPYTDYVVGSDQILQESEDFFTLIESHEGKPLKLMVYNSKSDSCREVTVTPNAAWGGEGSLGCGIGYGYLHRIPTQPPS
Set-up: key: below the threshold = too weak to quantify, mostly under pKd 3.1 to 4
With KSRPENGTVC [TMEM178B, H3BS89] the pKd was “below the threshold”.

The binders below were run against T9, RHPN1, Q8TCX5 (assay: holdup assay). Settings: plain residues with an end cap or a label only (N-terminal biotin on a linker: ado-ado).
Set-up: key: below the threshold = too weak to quantify, mostly under pKd 3.1 to 4
In the case of KSRPENGTVC [TMEM178B, H3BS89], the pKd is reported as “below the threshold”.

These binders were tested against T10, MPP7, Q5T2T1 (assay: holdup assay). Settings: plain residues with an end cap or a label only (N-terminal biotin on a linker: ado-ado).
Set-up: key: below the threshold = too weak to quantify, mostly under pKd 3.1 to 4
With KSRPENGTVC [TMEM178B, H3BS89] the pKd was “below the threshold”.

The binders below were run against Inadl_1, Q8NI35 (assay: holdup assay). Settings: plain residues with an end cap or a label only (N-terminal biotin on a linker: ado-ado).
Sequence of Inadl_1, Q8NI35 (Q8NI35 113-229): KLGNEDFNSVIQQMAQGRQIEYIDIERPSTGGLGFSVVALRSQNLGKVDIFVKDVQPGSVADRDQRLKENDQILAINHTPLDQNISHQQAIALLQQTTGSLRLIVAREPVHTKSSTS
Set-up: key: below the threshold = too weak to quantify, mostly under pKd 3.1 to 4
KSRPENGTVC [TMEM178B, H3BS89] was tested, and the pKd was “below the threshold”.

What follows are binders tested against IL16_1, Q14005 (assay: holdup assay). Settings: plain residues with an end cap or a label only (N-terminal biotin on a linker: ado-ado).
Sequence of IL16_1, Q14005 (Q14005 210-306): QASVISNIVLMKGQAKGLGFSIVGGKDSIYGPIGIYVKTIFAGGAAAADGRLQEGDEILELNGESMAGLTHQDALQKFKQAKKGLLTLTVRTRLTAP
Set-up: key: below the threshold = too weak to quantify, mostly under pKd 3.1 to 4
For KSRPENGTVC [TMEM178B, H3BS89], the pKd was “below the threshold”.

The binders below were run against T11, FRMPD1, Q5SYB0 (assay: holdup assay). Settings: plain residues with an end cap or a label only (N-terminal biotin on a linker: ado-ado).
Set-up: key: below the threshold = too weak to quantify, mostly under pKd 3.1 to 4
For KSRPENGTVC [TMEM178B, H3BS89], the pKd was “below the threshold”.

These binders were tested against GORASP2, Q9H8Y8 (assay: holdup assay). Settings: plain residues with an end cap or a label only (N-terminal biotin on a linker: ado-ado).
Set-up: key: below the threshold = too weak to quantify, mostly under pKd 3.1 to 4
For KSRPENGTVC [TMEM178B, H3BS89], the pKd was “below the threshold”.

These binders were tested against NHERF4_4, Q86UT5 (assay: holdup assay). Settings: plain residues with an end cap or a label only (N-terminal biotin on a linker: ado-ado).
Sequence of NHERF4_4, Q86UT5 (Q86UT5 464-550): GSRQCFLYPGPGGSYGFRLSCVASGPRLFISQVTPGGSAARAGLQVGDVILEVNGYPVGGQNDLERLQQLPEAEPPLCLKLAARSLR
Set-up: key: below the threshold = too weak to quantify, mostly under pKd 3.1 to 4
KSRPENGTVC [TMEM178B, H3BS89] was tested, and the pKd was “below the threshold”.

These binders were tested against GRIP2_6, Q9C0E4 (assay: holdup assay). Settings: plain residues with an end cap or a label only (N-terminal biotin on a linker: ado-ado).
Sequence of GRIP2_6, Q9C0E4 (Q9C0E4 648-740): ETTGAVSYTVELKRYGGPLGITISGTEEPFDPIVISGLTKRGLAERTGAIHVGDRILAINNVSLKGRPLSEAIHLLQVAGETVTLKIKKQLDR
Set-up: key: below the threshold = too weak to quantify, mostly under pKd 3.1 to 4
With KSRPENGTVC [TMEM178B, H3BS89] the pKd was “below the threshold”.
